The source of these data is patent publication US7005413 (Amgen, dated 2006).

Sequences and labels used below:
B1: huOPG [22-401] (receptor)
chain: ETFPPKYLHYDEETSHQLLCDKCPPGTYLKQHCTAKWKSVCAPCPDHYYTDSWHTSDECLYCSPVCKELQYVKQECNRTHNRVCECKEGRYLEIEFCLKHRSCPPGFGVVQAGTPERNTVCKRCPDGFFSNETSSKAPCRKHTNCSVFGLLLTQKGNATHDNICSGNSESTQKCGIDVTLCEEAFFRFAVPTKFTPNWLSVLVDNLPGTKVNAESVERIKRQHSSQEQTFQLLKLWKHQNKAQDIVKKIIQDIDLCENSVQRHIGHANLTFEQLRSLMESLPGKKVGAEDIEKTIKACKPSDQILKLLSLWRIKNGDQDTLKGLMHALKHSKTYHFPKTVTQSLKKTIRFLHSFTMYKLYQKLFLEMIGNQVQSVKISCL
notes: Recombinant polypeptide from CHO cells
B2: Rat OPG [22-401] produced in transgenic mice (receptor)
chain: ETFPPKYLHYDPETGRQLLCDKCAPGTYLKQHCTVRRKTLCVPCPDYSYTDSWHTSDECVYCSPVCKELQTVKQECNRTHNRVCECEEGRYLELEFCLKHRSCPPGLGVLQAGTPERNTVCKRCPDGFFSGETSSKAPCRKHTNCSSLGLLLIQKGNATHDNVCSGNREATQNCEIDVTLCEEAFFRFAVPTKIIPNWLSVLVDSLPGTKVNAESVERIKRRHSSQEQTFQLLKLWKHQNRDQEMVKKIIQDIDLCESSVQRHIGHANLTTEQLRILMESLPGKKISPDEIERTRKTCKPSEQLLKLLSLWRIKNGDQDTLKGLMYALKHLKAYHFPKTVTHSLRKTIRFLHSFTMYRLYQKLFLEMIGNQVQSVKISCL
notes: Expressed from the rat cDNA under a hepatocyte control element in transgenic mice; Analysed in liver extracts and serum; also called HE-OPG transgene product
B3: muOPG [22-401] C195S (receptor)
chain: ETLLPKYLHYDPETGHQLLCDKCAPGTYLKQHCTVRRKTLCVPCPDHSYTDSWHTSDECVYCSPVCKELQSVKQECNRTHNRVCECEEGRYLEIEFCLKHRSCPPGSGVVQAGTPERNTVCKKCPDGFFSGETSSKAPCIKHTNCSTFGLLLIQKGNATHDNCCSGNREATQKSGIDVTLCEEAFFRFAVPTKIIPNWLSVLVDSLPGTKVNAESVERIKRRHSSQEQTFQLLKLWKHQNRDQEMVKKIIQDIDLCESSVQRHLGHSNLTTEQLLALMESLPGKKISPEEIERTRKTCKSSEQLLKLLSLWRIKNGDQDTLKGLMYALKHLKTSHFPKTVTHSLRKTMRFLHSFTMYRLYQKLFLEMIGNQVQSVKISCL
B4: muOPG [22-401] C319S (receptor)
chain: B3 chain with S174C, C298S
notes: Expressed in 293 cells from pcDNA3.1-muOPG
B5: muOPG [22-401] C400S (receptor)
chain: B3 chain with S174C, C379S
notes: as for B4
B6: muOPG [22-401] C202S (receptor)
chain: B3 chain with S174C, C181S
notes: as for B4
B7: muOPG [22-401] C277S (receptor)
chain: B3 chain with S174C, C256S
notes: as for B4
B8: muOPG [22-212] (receptor)
chain: ETLLPKYLHYDPETGHQLLCDKCAPGTYLKQHCTVRRKTLCVPCPDHSYTDSWHTSDECVYCSPVCKELQSVKQECNRTHNRVCECEEGRYLEIEFCLKHRSCPPGSGVVQAGTPERNTVCKKCPDGFFSGETSSKAPCIKHTNCSTFGLLLIQKGNATHDNCCSGNREATQKCGIDVTLCEEAFFRFAVP
notes: also called CT212
B9: muOPG [22-200] (receptor)
chain: ETLLPKYLHYDPETGHQLLCDKCAPGTYLKQHCTVRRKTLCVPCPDHSYTDSWHTSDECVYCSPVCKELQSVKQECNRTHNRVCECEEGRYLEIEFCLKHRSCPPGSGVVQAGTPERNTVCKKCPDGFFSGETSSKAPCIKHTNCSTFGLLLIQKGNATHDNCCSGNREATQKCGIDVT
notes: C-terminal truncation ending at threonine 200, expressed in 293 cells; also called CT 200

Residue numbers refer to the chain shown, from its start. In names and notes the source's numbering stands.

The first data set concerns the molecule itself. Kind of data set: self-association; nonreducing SDS gels.
With B1, the binding result is on record as “binds”. Consider B2, for which the binding result was “binds”.

The next data set deals with the molecule itself. The data set is described as follows: homodimerization; non-reducing SDS-PAGE and western blot; the number is the monomer share. The procedure: The biological activity of each protein was assessed the in vitro osteoclast forming assay described in example 11. Conditioned media from each transfectant was analysed by non-reducing SDS-PAGE and western blotting with anti-OPG antibodies.
(In general: In western blotting, separated proteins are transferred to a membrane and probed.)
In turn, B3 gave a percent monomeric above 90%. Turning to B4, the percent monomeric is above 90%. Protein B5 came in with a percent monomeric above 90%.

Protein B6 gave a percent monomeric above 90%. Still for that read-out and setting: for B7 the value was above 90%.

Another data set deals with the molecule itself. The data set is described as follows: homodimerization; non-reducing SDS-PAGE and western blot with anti-OPG antibodies. The procedure:
Each resulting muOPG-CT plasmid containing the appropriate truncation was then transfected into human 293 cells, the mutant OPG-Fc fusion protein purified from conditioned media as described above. The biological activity of each protein was assessed the in vitro osteoclast forming assay described in example 11. The conditioned medias were also analysed by non-reducing SDS-PAGE and western blotting using anti-OPG antibodies.
Turning to B8, the binding result is listed as “no binding”. Still for that read-out and setting: for B9 the value was “no binding”.
